What was measured:
[1] = molecular target: GST-BRCT (Rad9 tandem BRCT domain fused to GST), wild type (S. cerevisiae); assay: pull-down
[2] = molecular target: 5-FAM-labeled phospho-T427 peptide of the Rad9 SCD (S. cerevisiae); assay: fluorescence polarisation

| yield of N-SCD in the pull-down (percent of the starting material) [1] [%] | Kd [2] [µM] | Substance |
| --- | --- | --- |
| > 10 |  | PIKK-phosphorylated N-SCD (N-terminal fragment of Rad9-TEV-HA from MMS-treated cells) (from UniProt P14737 1-990) (domain or fragment) |
|  | 78 | GST-BRCT (Rad9 tandem BRCT domain fused to GST), wild type (domain or fragment) |
